Consider 1 molecule from patent EP1593386A1 (Charité - Universitätsmedizin Berlin, dated 2005).

The test deals with T1, CD7 on human peripheral blood T lymphocytes (human, UniProt P09564 26-240).
T1 construct: whole, on cells
T1 sequence (looked up): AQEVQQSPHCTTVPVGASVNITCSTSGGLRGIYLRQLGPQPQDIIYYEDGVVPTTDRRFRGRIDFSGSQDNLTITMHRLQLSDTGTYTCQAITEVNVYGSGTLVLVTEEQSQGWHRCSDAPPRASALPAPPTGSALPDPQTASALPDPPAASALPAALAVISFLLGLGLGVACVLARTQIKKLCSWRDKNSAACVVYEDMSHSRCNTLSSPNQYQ
In words: pull-down with galectin-2 coated tosyl-activated magnetic beads on PBT, immunoblot for CD7. (In general: A western blot detects proteins with antibodies after separation by electrophoresis.)

B1: galectin-2 (ligand, UniProt P05162 1-132, looked up)
chain: MTGELEVKNMDMKPGSTLKITGSIADGTDGFVINLGQGTDKLNLHFNPRFSESTIVCNSLDGSNWGQEQREDHLCFSPGSEVKFTVTFESDKFKVKLPDGHELTFPNRLGHSHLSYLSVRGGFNMSSFKLKE
modifications: biotin-labelled (sites not given) in the flow cytometry assays; coupled to tosyl-activated magnetic beads in the co-immunoprecipitation
notes: also called Gal-2; biotin-labelled galectin-2
With B1, the binding result is listed as “no binding”.
